The target of the assay is T22-GFP-H6 protein nanoparticle (unlabeled) (horseshoe crab | not stated). Briefly: SEC-MALS; Superdex 200 increase 10/300 GL; 166 mM NaHCO3, 333 mM NaCl, 0.1 mM NiCl2, pH 8; average molar mass of the self-assembled nanoparticles, in duplicate. (Size exclusion chromatography separates by hydrodynamic size, large species first.)

Usually stoichiometry N stands for a count of units in the complex or per binding partner.

“T22-GFP-H6 protein nanoparticle (unlabeled)” had a stoichiometry N of 10 copies.

The record behind these values is PMC7690626.
